Source: patent publication US20240092877A1 (DXDISCOVERY, published 2024)
Numbering of substitutions follows the chain as printed.

What was measured:
Experiment in all cases: indirect ELISA, plates coated with TcfA protein fragment
[1] = biological target: T1, TcfA peptide amino acids 288-304 conjugated to bovine serum albumin (Bordetella pertussis, conjugated to bovine serum albumin (BSA))
T1 construct: Protein fragment coated on ELISA plates; BSA conjugate
T1 peptide: QLPERGDDAGPKPPEGE

[2] = biological target: T2, TcfA peptide amino acids 305-323 conjugated to bovine serum albumin (Bordetella pertussis, conjugated to bovine serum albumin (BSA))
T2 construct: Protein fragment coated on ELISA plates; BSA conjugate
T2 peptide: GGDEGPQPPQGGGEQDAPE

[3] = biological target: T3, TcfA peptide amino acids 140-160 conjugated to bovine serum albumin (Bordetella pertussis, conjugated to bovine serum albumin (BSA))
T3 construct: Protein fragment coated on ELISA plates; BSA conjugate; also called aa140-160
T3 peptide: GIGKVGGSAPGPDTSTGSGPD

[4] = biological target: T4, TcfA protein fragment amino acids 40-374 (Bordetella pertussis)
T4 construct: Not conjugated to BSA
T4 chain: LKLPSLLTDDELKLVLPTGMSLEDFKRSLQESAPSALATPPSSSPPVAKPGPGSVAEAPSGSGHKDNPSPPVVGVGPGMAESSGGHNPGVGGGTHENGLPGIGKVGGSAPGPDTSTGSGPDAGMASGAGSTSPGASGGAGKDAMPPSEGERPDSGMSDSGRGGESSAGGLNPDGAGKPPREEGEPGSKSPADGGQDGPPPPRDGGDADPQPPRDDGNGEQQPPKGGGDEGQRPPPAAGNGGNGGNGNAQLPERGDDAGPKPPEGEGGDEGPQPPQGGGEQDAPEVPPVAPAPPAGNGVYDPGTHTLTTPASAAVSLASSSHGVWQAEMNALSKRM

B1: anti-TcfA monoclonal antibody 13E11 (antibody, V domains shown)
VH: EVQLVESGGGLVKPGGSRKLSCAASGFTFSDYGMHWVRQAPEKGLEWVAYISSGSSTIYYADTVKGRFTISRDNAKNTLFLQMTSLRSEDTAMYYCARPRSGRYFDYWGQGTTLTVSS
VL: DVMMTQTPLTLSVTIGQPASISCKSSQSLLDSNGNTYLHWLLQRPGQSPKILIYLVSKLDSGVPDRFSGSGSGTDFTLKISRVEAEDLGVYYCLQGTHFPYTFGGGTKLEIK
**Q.** Which results are given for B1?
**A.** binding result [1]: binds; binding result [2]: binds

B2: anti-TcfA monoclonal antibody 20F4 (antibody, V domains shown)
VH: QIQLVQSGPELKKPGETVKISCKASGYTFTNYGMNWVKQAPGKGLKWMGWINTYTGEPTYADDFKGRFAFSLETSATTAYLQINNLKNEDTATYFCARAATGYFDYWGQGTTLTVSS
VL: DIVMSQSPSSLAVSAGEKVTMSCKSSQSLLYSSNQKNYLAWYQQKPGQSPKLLIYWASTRESGVPDRFTGSGSGTDFTLTISSVKAEDLAVYYCQQYYNEYTFGGGTKLEIK
**Q.** Does B2 bind [2]?
**A.** Result: binds

B3: anti-TcfA monoclonal antibody 10B1 (antibody, V domains shown)
VH: EVQLQQSGAELVKPGASVKLSCTASGFNIKDTYIHWVKQRPEQGLEWIGRIDPANGNTIYASKFQGKAPITAVTSSNTAYMQFSSLTSGDTAVYYCTAMDYWGQGTSVTVSS
VL: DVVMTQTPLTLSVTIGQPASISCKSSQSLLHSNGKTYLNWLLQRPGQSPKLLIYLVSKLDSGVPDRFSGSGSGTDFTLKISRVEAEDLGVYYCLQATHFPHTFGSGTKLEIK
**Q.** Does B3 bind [3]?
**A.** Result: binds

B4: anti-TcfA monoclonal antibody 7E11 (antibody, V domains shown)
VH: B3 VH with T58I, K67E, P69T, V73D, F83L, T97S
VL: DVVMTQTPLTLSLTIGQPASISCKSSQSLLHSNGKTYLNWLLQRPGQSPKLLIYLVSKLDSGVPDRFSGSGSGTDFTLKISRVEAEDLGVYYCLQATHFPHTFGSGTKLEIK
**Q.** Does B4 bind [3]?
**A.** Result: binds

B5: anti-TcfA monoclonal antibody 18B2 (antibody, V domains shown)
VH: QVQLQQSGAELVRPGTSVKMSCKAAGYTFTNYWIGWVKQRPGHGLEWIGDIYPGGVYTNYNENFKGKATLTADTSSSTAHMQLSSLTSEDSAIYYCVRGGKYGNFFAMDYWGQGTSVTVSS
VL: DIVITQDELSNPVTSGESVSISCRSSKSLLYKDGKTYLNWFLQRPGQSPQLLIYLMSTRASGVSDRFSGSGSGTDFTLEISRVKAEDVGVYYCQQLVEYPFTFGSGTKLEIK
**Q.** Does B5 bind [4]?
**A.** Result: binds

B6: anti-TcfA monoclonal antibody 14D12 (antibody, V domains shown)
VH: EVMLVESGGALVKPGGSLKLSCAASGITFSNYAMSWIRQTPEKRLEWVASISSGGSYIYYSDSVKGRFTISRDNARNTLNLQMSSLRSEDTAMYYCVRGAHGNFDYWGQGTTLTVSS
VL: DIVLTQSPASLAVSLGQRATISCRTSETVDYDGDSYMNWYQQKSGQPPKLLISGASNVESGVPARFSGSGSGTDFSLNIHPVEEDDITMYFCQQNRKLPYTFGSGTKLEMK
**Q.** Does B6 bind [1]?
**A.** Result: binds

B7: anti-TcfA monoclonal antibody 3E6 (antibody, V domains shown)
VH: EVKLVESGGGLVQPGGSLRLSCATSGFTFTDYYMSWVRQPPGKALEWMGFIRNKAKGYTTDYSASVKGRFTISRDDSQSILYLQMNTLRPEDSATYYCARNYDYSMDYWGQGTSVTVSS
VL: DIQLTQSPASLSASVGETVTITCRASDNIHKYLAWYQQKQGKSPQRLVYNAKTLADGVPSRFNGSGSGTQYSLKINSLQPEDFGIYYCQHFWSTPLTFGAGTKLELK
**Q.** Does B7 bind [3]?
**A.** Result: binds

B8: anti-TcfA monoclonal antibody 23F8 (antibody, V domains shown)
VH: EVQLVESGGGLVKPGGSRKLSCAASGFTFSDYGMHWVRQAPEKGLEWVAYISSGSRTIYYADTVKGRFTISRDNAKNTLFLQMTSLRSEDTAMYYCARLGYGYDWYFDVWGTGTTVTVSS
VL: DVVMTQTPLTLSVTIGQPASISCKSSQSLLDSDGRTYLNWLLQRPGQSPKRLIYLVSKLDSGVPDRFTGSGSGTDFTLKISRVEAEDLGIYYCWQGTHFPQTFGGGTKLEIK
**Q.** Does B8 bind [1]?
**A.** Result: binds

B9: anti-TcfA monoclonal antibody 14G11 (antibody, V domains shown)
VH: EVKLVESGGGLVQPGGSLSLSCAASGFTFTDYYMSWVRQPPGKALEWLGFIRNKANGYTTEYSASVKGRFTISRDNSQSILYLQMNALRAEDSATYYCARYRRDYYGSLNYYTMDYWGQGTSVTVSS
VL: DIQMTQSPASLSASVGETVTITCRASENIYSYLAWYQQKQGKSPQLLVYNAKTLAEGVPSRFSGSGSGTQFSLKINSLQPEDFGSYYCQNHYGIPLTFGAGTKLELK
**Q.** Does B9 bind [2]?
**A.** Result: binds
